Target: Plasminogen (human)

| KM for plasminogen activation (indirect chromogenic assay with S-2251; plasminogen 24-0 μM, 1 nM muPA, 37°C) | kcat for plasminogen activation (indirect chromogenic assay with S-2251; plasminogen 24-0 μM, 1 nM muPA, 37°C) | Substance |
| --- | --- | --- |
| 24.6 µM |  | Full-length muPA E73A (enzyme) |
| 3.1 µM |  | Full-length muPA K72A (enzyme) |
| 5.1 µM |  | Full-length muPA N77A (enzyme) |
| 3.9 µM |  | Full-length muPA P78A (enzyme) |
| 22 µM |  | Full-length muPA S74A (enzyme) |
| 5 µM |  | Full-length muPA Y76A (enzyme) |
| 12 µM | 0.06 s⁻¹ | Full-length muPA Y149A (enzyme) |
| 9.8 µM |  | Full-length murine urokinase-type plasminogen activator (muPA) (from UniProt P06869 21-433) (enzyme) |

From publication PMC5805342
